Assay results taken from patent US9574185B2, “Cold-adapted protease derived from Pseudoalteromonas arctica PAMC 21717 and uses thereof” (KOREA INSTITUTE OF OCEAN SCIENCE & TECHNOLOGY, priority 2014, dated 2017).

Key:
[1] = tested on: W-Pro21717; experiment: Reactions of W-Pro21717 with various protease inhibitors; type: biochemical, Pseudoalteromonas arctica PAMC 21717; details: for Residual activity (%): residual activity of W-Pro21717, inhibitor 1 mM
Method: The reaction solution was centrifuged, and then filtered through a filter having a pore size of 0.45 μm, and the filtrate was mixed and reacted with Folin & Ciocalteu's phenol solution and 500 mM sodium carbonate solution at 37° C. for 30 minutes. Next, the enzymatic activity of the reaction product was measured at 660 nm based on an L-tyrosine standard curve, and an amino acid production of 1 nmole/min/mg at 25° C. was defined as the activity of 1 unit of protease.
The kind of W-Pro21717 was analyzed by reactions with various protease inhibitors.

[2] = tested on: W-Pro21717; experiment: Activity and stability of W-Pro21717 in the presence of metal ions and surfactants; type: biochemical, Pseudoalteromonas arctica PAMC 21717; details: 1 mM, on ice for 1 hour
Method: In order to analyze the influence of metal ions and detergents, W-[…] was allowed to react with a standard buffer containing 1 mM BaCl2, CuSO4, MgSO4, CaCl2, ZnSO4, FePO4, KCl, NaCl, […], sodium linear alkylbenzene sulfonate (LAS) or SDS on ice for 1 hour. In addition, the compatibility of W-[…] with a commercial detergent (LG Household & Health Care, Korea; containing subtilisin Carlsberg) was analyzed using skim milk at temperatures of 10° C. or and 30° C.

[3] = Stability of W-Pro21717 as a function of temperature and pH; type: physicochemical; details: after a reaction at 40° C. for 1 hour
[4] = tested on: azocasein; experiment: Activity of R-Pro21717 as a function of temperature and pH; type: biochemical
Method: (§1) In order to determine a temperature optimal for the activity of the protease, R-Pro21717 was allowed to react at varying temperatures of 0˜70° C., and then analyzed. The stability of R-Pro21717 against temperature was analyzed by allowing R-Pro21717 at varying temperatures of 0˜70° C. for 1 hour, and then allowing R-Pro21717 to react a 0.65% azocasein-containing standard buffer at 30° C. for 30 minutes. As a control enzyme, Carlsberg subtilisin was used.
(§2) In order to determine a pH optimal for the activity of the protease, R-Pro21717-containing buffers having varying pHs were allowed to react at 30° C., and then analyzed. The stability of R-Pro21717 against pH was analyzed by allowing R-Pro21717-containing buffers having varying pHs to react on ice for 1 hour, and then reacting R-Pro21717 in 0.65% azocasein-containing standard buffer at 30° C. for 30 minutes. Carlsberg subtilisin was used as a control enzyme and analyzed at a reaction temperature of 40° C.

[5] = Substrate specificity of R-Pro21717, synthetic peptide (oligo molecule) substrates; type: biochemical
Method: (§3) The substrate specificity of W-Pro21717 was analyzed using 5 mM of each of the following 7 different synthetic peptides: N-succinyl-Ala-Ala-Val-p-nitroanilide (AAV), N-succinyl-Ala-Ala-Pro-Leu-p-nitroanilide (AAPL), N-succinyl-Ala-Ala-Ala-p-nitroanilide (AAA), N-succinyl-Gly-Gly-Phe-p-nitroanilide (GGF), N-succinyl-Thr-Leu-Val-p-nitroanilide (TLV), N-succinyl-Ala-Ala-Pro-Phe-p-nitroanilide (AAPF), and N-succinyl-Ala-Ala-Val-Ala-p-nitroanilide (AAVA). W-Pro21717 was allowed to react with a standard buffer containing 0.83 mM substrate at 25° C. for 10 minutes, and then the relative activity thereof was measured at 410 nm.
In this Example, the activity of the R-Pro21717 protease in the presence of synthetic peptide substrates was analyzed.

[6] = Substrate specificity of W-Pro21717 with synthetic peptides (p-nitroanilides, 410 nm); type: biochemical; details: 25° C., 10 minutes
Method: as §3

[7] = Activity of W-Pro21717 as a function of temperature and pH; type: biochemical; details: range 0 to 60° C. tested
Method: A temperature optimal for the activity of W-Pro21717 was analyzed in the temperature range of 0 to 60° C., and the optimum pH was analyzed by 1-hour reactions in 50 mM sodium acetate (pH 2.0-6.0), 50 mM potassium phosphate (pH 7.0-10.0) and 50 mM sodium tetraborate (pH 10.0). As a control, 3 μg of the commercial protease Carlsberg subtilisin was used.

[8] = tested on: complex substrates including collagen and keratin; experiment: Substrate specificity of R-Pro21717, macro molecule substrates; type: biochemical
[9] = tested on: azocasein; experiment: Stability of R-Pro21717 against temperature and pH; type: physicochemical; details: 1 hour at varying temperatures, then azocasein 30° C. 30 minutes
Method: as §1, §2

O=S(=O)(F)Cc1ccccc1 [PMSF]
effect of inhibitor on the activity of W-Pro21717 [1]: inhibited | Residual activity (%) [1]: 40 ± 8%

[Cl][Hg][Cl] [HgCl2]
effect of inhibitor on the activity of W-Pro21717 [1]: inhibited | Residual activity (%) [1]: 23 ± 8%

sodium linear alkylbenzene sulfonate [LAS]
stability of W-Pro21717 in the presence of standard detergent components [2]: sufficient stability

CC(=O)N[C@@H](CC(C)C)C(=O)N[C@@H](CC(C)C)C(=O)N[C@H](C=O)CCCNC(=N)N [Leupeptin]
Residual activity (%) [1]: 98 ± 2%

[Cl-].[Na+] [Na^2+, NaCl]
influence on the activity of W-Pro21717 [2]: did not influence

O=S(=O)([O-])[O-].[Mg+2] [Me, MgSO4]
influence on the activity of W-Pro21717 [2]: did not influence

O=S(=O)([O-])[O-].[Cu+2] [CuSO4]
increase of the activity of W-Pro21717 [2]: about 60%

O=S(=O)([O-])[O-].[Na+].[Na+] [Na2SO4]
stability of W-Pro21717 in the presence of standard detergent components [2]: sufficient stability

O=P([O-])([O-])[O-].[Fe+3] [Fe^2+, FePO4]
influence on the activity of W-Pro21717 [2]: did not influence

CCN1C(=O)C=CC1=O [N-Ethylmaleimide]
Residual activity (%) [1]: 107 ± 8%

O=S(=O)([O-])[O-].[Zn+2] [Zn^2+, ZnSO4]
influence on the activity of W-Pro21717 [2]: did not influence

APMA
Residual activity (%) [1]: 131 ± 2%

[Ba+2].[Cl-].[Cl-] [Ba^2+, BaCl2]
influence on the activity of W-Pro21717 [2]: did not influence

NC(=O)CI [Iodoacetamide]
Residual activity (%) [1]: 94 ± 3%

Cc1ccc(S(=O)(=O)N[C@@H](CCCCN)C(=O)CCl)cc1 [N^a-p-tosyp-L-lysine chloromethyl ketone]
Residual activity (%) [1]: 137 ± 13%

O=C(O)CN(CCN(CC(=O)O)CC(=O)O)CC(=O)O [EDTA]
effect of inhibitor on the activity of W-Pro21717 [1]: slightly inhibited | Residual activity (%) [1]: 75 ± 9%

[Cl-].[K+] [K^+, KCl]
influence on the activity of W-Pro21717 [2]: did not influence

[Ca+2].[Cl-].[Cl-] [Ca^2+, CaCl2]
influence on the activity of W-Pro21717 [2]: did not influence

B1: Subtilisin Carlsberg: commercial protease used as control enzyme (protein, UniProt P00780 106-379, looked up)
Subtilisin Carlsberg: AQTVPYGIPLIKADKVQAQGFKGANVKVAVLDTGIQASHPDLNVVGGASFVAGEAYNTDGNGHGTHVAGTVAALDNTTGVLGVAPSVSLYAVKVLNSSGSGSYSGIVSGIEWATTNGMDVINMSLGGASGSTAMKQAVDNAYAKGVVVVAAAGNSGSSGNTNTIGYPAKYDSVIAVGAVDSNSNRASFSSVGAELEVMAPGAGVYSTYPTNTYATLNGTSMASPHVAGAAALILSKHPNLSASQVRNRLSSTATYLGSSFYYGKGLINVEAAAQ
decrease in activity [3]: 80% | temperature optimal for the activity ([4]; 0˜70° C. tested): 60 °C | proteolytic activity at low temperature compared to 60° C. ([4]; printed 'at or'): did not show proteolytic activity | pH optimum and pH stability compared with R-Pro21717 ([4]; reaction temperature 40° C.): the same results as those of R-Pro21717 | Relative activity (%) ([5]; substrate AAA): 10.2 ± 1.9% | Relative activity (%) ([5]; substrate AAPF): 100% | Relative activity (%) ([5]; substrate AAPL): 57.1 ± 10.1% | Relative activity (%) ([5]; substrate AAV): 7.9 ± 3.9% | Relative activity (%) ([5]; substrate AAVA): 12.9 ± 0.6% | Relative activity (%) ([5]; substrate GGF): 16.2 ± 2.1% | Relative activity (%) ([5]; substrate TLV): 11.9 ± 1.1% | Relative activity (%) ([6]; substrate AAA): 1.5 ± 0.5% | Relative activity (%) ([6]; substrate AAPF): 100% | Relative activity (%) ([6]; substrate AAPL): 66.5 ± 0.1% | Relative activity (%) ([6]; substrate AAPL, listed as subtilisin Carlsberg): 68.3% | Relative activity (%) ([6]; substrate AAV): 2.6 ± 1.3% | Relative activity (%) ([6]; substrate AAVA): 11.7 ± 2.3% | Relative activity (%) ([6]; substrate GGF): 0% | Relative activity (%) ([6]; substrate TLV): 4.0 ± 3.7% | temperature optimal for the activity [7]: 60 °C | Relative activity (%) ([8]; substrate Azocasein): 100% | Relative activity (%) ([8]; substrate Collagen): 6.7 ± 1.2% | Relative activity (%) ([8]; substrate Keratin): 30.2 ± 5.6% | Relative activity (%) ([8]; substrate Skim milk): 67.7 ± 5.7% | temperature at which stability / enzymatic activity decreases [9]: ≥ 50 °C
